Kd data for two substances are collected here from article PMC10362037.

The target of this assay is SARS-CoV-2 (2019-nCov) Spike S1 (Abclonal, RP01262) (SARS-CoV-2) (UniProt P0DTC2). Briefly: SPR. On the technique in general: Surface plasmon resonance follows binding to a sensor surface in real time, without labels.

For orientation: Kd means the constant that tells how readily two partners part at equilibrium. A high value points to lower affinity. “Human integrin αvβ3 (R&D Systems, 3817-AV-050) (from UniProt P06756 31-1048; P05106 27-718) (complex)” had a Kd of 0.0404 µM.
The substance “suPAR (purified protein of the SPR assay) (from UniProt Q03405 23-305) (natural protein)” came in with a Kd of more than 2000 µM.
